Drawing on patent US9765346B2, “Biological methods for preparing a fatty dicarboxylic acid” (Verdezyne, Inc., priority 2011, dated 2017), this text covers substrate specificity for one molecule.

The test concerns the target T1, Pox4 (Candida tropicalis, UniProt P06598).
T1 construct: made in house; host or cells: E. coli Rosetta II BL21, pET26b; crude cell lysate (10 ug per reaction)
The class given is biochemical, Candida strain ATCC20336. Particulars: native isozyme. As to the method:
To express an enzyme, a colony from each transformation of Rosetta cells was used to start a 5 ml overnight culture of LB containing the antibiotics kanamycin (to select for pET26b) and chloramphenicol (to select for a second plasmid found in Rosetta II cells that mediates improved translation of eukaryotic proteins expressed in E. coli) grown at 37° C. The next morning, the overnight culture was used to seed 30 ml of LB containing kanamycin and chloramphenicol to an OD600 reading of 0.1. The 30 ml cultures were grown at 37° C. for 2 hours and then placed on ice for 10 minutes. To induce expression, isopropyl-beta-D-thiogalactopyranoside (IPTG) was added to the culture to a final concentration of 0.1 mM. In some cases induction was performed using Novagen Overnight Express Autoinduction System 1 (CAT#71300-3). The cells were then shaken at 15° C. overnight to express the acyl CoA oxidase.
To test the activity of the acyl CoA oxidase, cells from the overnight induction were pelleted at 1046×g at 4° C. in 50 ml conical tubes. The cell pellets were resuspended in 1 ml of 50 mM KPO4, pH 7.6, 50 μM FAD buffer and then transferred to a 2 ml centrifuge tube. A Misonix Sonicator 3000 (QSonica, Newtown, Conn.) was used to lyse the cells, which were sonicated at a power setting of 2 for 2 pulses of 20 seconds each. […] The spectrophotometer was set to read for 5 minutes at 500 nm, 30° C. […]

B1: Pox4p: native acyl-CoA oxidase isozyme of Candida strain ATCC20336 (protein, UniProt P06598 2-709, looked up)
Acyl-coenzyme A oxidase 4: TFTKKNVSVSQGPDPRSSIQKERDSSKWNPQQMNYFLEGSVERSELMKALAQQMERDPILFTDGSYYDLTKDQQRELTAVKINRIARYREQESIDTFNKRLSLIGIFDPQVGTRIGVNLGLFLSCIRGNGTTSQLNYWANEKETADVKGIYGCFGMTELAHGSNVAGLETTATFDKESDEFVINTPHIGATKWWIGGAAHSATHCSVYARLIVDGQDYGVKTFVVPLRDSNHDLMPGVTVGDIGPKMGRDGIDNGWIQFSNVRIPRFFMLQKFCKVSAEGEVTLPPLEQLSYSALLGGRVMMVLDSYRMLARMSTIALRYAIGRRQFKGDNVDPNDPNALETQLIDYPLHQKRLFPYFVPPMSSPSVPSRLNTPSRPPWSNWTSPLKRTTPRLIFKSIDDMKSLFVDSGSLKSTATWLGAEAIDQCRQACGGHGHSSYNGFGKAYNDWVVQCTWEGDNNVLGMSVGKPIVKQVISIEDAGKTVRGSTAFLNQLKEYTGSNSSKVVLNTVADLDDIKTVIKAIEVAIIRLSQEAASIVKKESFDYVGAELVQLSKLKAHHYLLTEYIRRIDTFDQKELAPYLITLGKLYAATIVLDRFAGVFLTFNVASTEAITALASVQIPKLCAEVRPNVVAYTDSFQQSDMIVNSAIGRYDGDIYENYFDLVKLQNPPSKTKAPYSDALEAMLNRPTLDERERFQKSDETAAILSK
Turning to B1, the substrate specificity entry is given as “broad substrate specificity”.
